From patent US20240165282A1, “CONFORMATIONAL CONSTRAINED SOMATOSTATIN RECEPTOR 3 PEPTIDE LIGANDS AND THEIR CONJUGATES AND USES THEREOF” (STARGET PHARMA LTD., priority 2021, published 2024)
*1 amine or outer side, *2 acyl side, *3 side chain or, on linkers, in order; H or OH if unused. Bridges are numbered along the chain shown (N, C = ends). [ ]: non-standard residue; d: D form. The star is where a group is joined. DOTA = O=C(O)CN1CCN(CC(=O)O)CCN(CC(=O)*)CCN(CC(=O)O)CC1; N(2-mercaptoethyl)Gly = O=C(CN(CCS[*:3])[*:1])[*:2]

Key:
Assay in all cases: cell-based or functional assay
(CR)L-RAMP2 (human) = (CR)L-RAMP2 (human) (UniProt Q16602)
(CR)L-RAMP3 (human) = (CR)L-RAMP3 (human) (UniProt Q16602)
ADRA2B (human) = ADRA2B (human) (UniProt P18089)
ADRB2 (human) = ADRB2 (human) (UniProt P07550)
C3AR1 (human) = C3AR1 (human) (UniProt Q16581)
CCKAR (human) = CCKAR (human) (UniProt P32238)
CCR4 (human) = CCR4 (human) (UniProt P51679)
CCR5 (human) = CCR5 (human) (UniProt P51681)
CCR6 (human) = CCR6 (human) (UniProt P51684)
CCR8 (human) = CCR8 (human) (UniProt P51685)
CCR9 (human) = CCR9 (human) (UniProt P51686)
CHRM4 (human) = CHRM4 (human) (UniProt P08173)
CMKLR1 (human) = CMKLR1 (human) (UniProt Q99788)
CNR2 (human) = CNR2 (human) (UniProt P34972)
CRHR1 (human) = CRHR1 (human) (UniProt P34998)
CXCR1 (human) = CXCR1 (human) (UniProt P25024)
CXCR2 (human) = CXCR2 (human) (UniProt P25025)
CXCR3 (human) = CXCR3 (human) (UniProt P49682)
CXCR5 (human) = CXCR5 (human) (UniProt P32302)
CXCR6 (human) = CXCR6 (human) (UniProt O00574)
CXCR7 (human) = CXCR7 (human) (UniProt P25106)
DRD1 (human) = DRD1 (human) (UniProt P21728)
DRD3 (human) = DRD3 (human) (UniProt P35462)
DRD4 (human) = DRD4 (human) (UniProt P21917)
DRD5 (human) = DRD5 (human) (UniProt P21918)
EBI2 (human) = EBI2 (human) (UniProt P32249)
EDG1 (human) = EDG1 (human) (UniProt P21453)
EDG4 (human) = EDG4 (human) (UniProt Q9HBW0)
EDG6 (human) = EDG6 (human) (UniProt O95977)
F2R (human) = F2R (human) (UniProt P25116)
GLP1R (human) = GLP1R (human) (UniProt P43220)
GLP2R (human) = GLP2R (human) (UniProt O95838)
GPR109A (human) = GPR109A (human) (UniProt Q8TDS4)
GPR120 (human) = GPR120 (human) (UniProt Q5NUL3)
GPR35 (human) = GPR35 (human) (UniProt Q9HC97)
GPR92 (human) = GPR92 (human) (UniProt Q9H1C0)
HTR1F (human) = HTR1F (human) (UniProt P30939)
HTR2A (human) = HTR2A (human) (UniProt P28223)
KISS1R (human) = KISS1R (human) (UniProt Q969F8)
LHCGR (human) = LHCGR (human) (UniProt P22888)
MC3R (human) = MC3R (human) (UniProt P41968)
MCHR2 (human) = MCHR2 (human) (UniProt Q969V1)
NPY1R (human) = NPY1R (human) (UniProt P25929)
NPY2R (human) = NPY2R (human) (UniProt P49146)
OPRM1 (human) = OPRM1 (human) (UniProt P35372)
OXTR (human) = OXTR (human) (UniProt P30559)
P2RY6 (human) = P2RY6 (human) (UniProt Q15077)
PPYR1 (human) = PPYR1 (human) (UniProt P50391)
PROKR1 (human) = PROKR1 (human) (UniProt Q8TCW9)
PROKR2 (human) = PROKR2 (human) (UniProt Q8NFJ6)
PTHR2 (human) = PTHR2 (human) (UniProt P49190)
RXFP3 (human) = RXFP3 (human) (UniProt Q9NSD7)
TACR2 (human) = TACR2 (human) (UniProt P21452)
TACR3 (human) = TACR3 (human) (UniProt P29371)
TBXA2R (human) = TBXA2R (human) (UniProt P21731)
TSHR(L) (human) = TSHR(L) (human) (UniProt P16473)
UTR2 (human) = UTR2 (human) (UniProt Q9UKP6)
[1] = biological target: human cloned somatostatin receptor 2 (human) (UniProt P30874)
[2] = biological target: human cloned somatostatin receptor 5 (human) (UniProt P35346)

Measured: % Activity (agonist mode, 1 µM)

Sequence of PPYR1 (human) (P50391 whole entry): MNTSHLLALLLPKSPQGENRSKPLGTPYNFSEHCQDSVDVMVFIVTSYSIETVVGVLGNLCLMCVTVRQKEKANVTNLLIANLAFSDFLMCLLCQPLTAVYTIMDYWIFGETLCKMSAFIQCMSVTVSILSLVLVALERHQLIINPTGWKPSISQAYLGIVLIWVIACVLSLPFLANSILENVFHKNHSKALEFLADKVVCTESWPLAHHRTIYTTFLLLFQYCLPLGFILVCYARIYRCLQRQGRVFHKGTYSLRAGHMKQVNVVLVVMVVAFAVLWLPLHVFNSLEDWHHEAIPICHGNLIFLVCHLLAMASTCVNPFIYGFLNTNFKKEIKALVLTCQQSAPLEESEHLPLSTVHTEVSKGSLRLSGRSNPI
Sequence of CCR9 (human) (P51686 whole entry): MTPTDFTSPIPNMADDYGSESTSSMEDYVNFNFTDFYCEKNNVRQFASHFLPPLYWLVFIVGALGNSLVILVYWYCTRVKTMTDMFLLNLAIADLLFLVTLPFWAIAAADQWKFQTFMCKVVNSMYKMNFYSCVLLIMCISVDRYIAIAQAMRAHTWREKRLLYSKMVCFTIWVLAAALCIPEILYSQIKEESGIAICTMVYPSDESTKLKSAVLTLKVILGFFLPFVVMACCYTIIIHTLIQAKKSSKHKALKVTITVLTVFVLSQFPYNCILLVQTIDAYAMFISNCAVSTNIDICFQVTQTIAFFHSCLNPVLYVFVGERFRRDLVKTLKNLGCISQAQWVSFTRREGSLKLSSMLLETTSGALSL
Sequence of GLP2R (human) (O95838 whole entry): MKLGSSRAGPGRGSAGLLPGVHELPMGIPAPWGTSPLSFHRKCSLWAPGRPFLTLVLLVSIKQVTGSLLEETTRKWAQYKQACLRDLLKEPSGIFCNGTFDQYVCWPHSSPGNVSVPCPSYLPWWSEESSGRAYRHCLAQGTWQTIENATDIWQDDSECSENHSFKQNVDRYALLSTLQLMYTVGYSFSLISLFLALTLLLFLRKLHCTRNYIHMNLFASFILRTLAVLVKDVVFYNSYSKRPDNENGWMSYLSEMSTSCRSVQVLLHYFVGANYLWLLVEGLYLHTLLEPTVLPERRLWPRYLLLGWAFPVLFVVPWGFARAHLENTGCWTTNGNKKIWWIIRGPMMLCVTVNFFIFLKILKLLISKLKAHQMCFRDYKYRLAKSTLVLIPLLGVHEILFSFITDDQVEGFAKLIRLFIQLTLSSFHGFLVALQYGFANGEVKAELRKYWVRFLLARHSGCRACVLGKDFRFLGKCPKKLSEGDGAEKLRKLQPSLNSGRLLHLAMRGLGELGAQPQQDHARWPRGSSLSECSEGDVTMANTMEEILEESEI
Sequence of CCR8 (human) (P51685 whole entry): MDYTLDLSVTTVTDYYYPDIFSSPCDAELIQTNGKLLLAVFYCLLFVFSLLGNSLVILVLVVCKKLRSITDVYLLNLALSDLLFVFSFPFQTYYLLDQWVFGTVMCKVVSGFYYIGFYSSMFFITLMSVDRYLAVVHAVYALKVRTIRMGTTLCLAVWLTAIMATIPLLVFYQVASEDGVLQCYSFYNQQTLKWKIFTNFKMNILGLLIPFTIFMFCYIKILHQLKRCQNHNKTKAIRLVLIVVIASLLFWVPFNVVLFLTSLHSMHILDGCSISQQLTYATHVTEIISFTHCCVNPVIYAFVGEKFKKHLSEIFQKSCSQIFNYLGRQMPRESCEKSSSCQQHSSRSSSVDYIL
Sequence of TACR3 (human) (P29371 whole entry): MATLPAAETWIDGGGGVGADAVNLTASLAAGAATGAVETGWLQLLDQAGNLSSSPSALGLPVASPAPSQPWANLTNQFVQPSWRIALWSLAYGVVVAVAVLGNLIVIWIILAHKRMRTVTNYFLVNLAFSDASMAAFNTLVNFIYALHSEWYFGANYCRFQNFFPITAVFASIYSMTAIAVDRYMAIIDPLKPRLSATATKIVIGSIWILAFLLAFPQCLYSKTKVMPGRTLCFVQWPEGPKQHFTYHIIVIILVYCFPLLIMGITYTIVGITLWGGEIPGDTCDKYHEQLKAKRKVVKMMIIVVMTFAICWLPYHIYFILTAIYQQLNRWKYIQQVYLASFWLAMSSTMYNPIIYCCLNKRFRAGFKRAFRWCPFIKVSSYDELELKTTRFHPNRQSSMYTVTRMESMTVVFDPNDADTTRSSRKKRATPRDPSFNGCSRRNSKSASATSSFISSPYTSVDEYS
Sequence of TSHR(L) (human) (P16473 21-764): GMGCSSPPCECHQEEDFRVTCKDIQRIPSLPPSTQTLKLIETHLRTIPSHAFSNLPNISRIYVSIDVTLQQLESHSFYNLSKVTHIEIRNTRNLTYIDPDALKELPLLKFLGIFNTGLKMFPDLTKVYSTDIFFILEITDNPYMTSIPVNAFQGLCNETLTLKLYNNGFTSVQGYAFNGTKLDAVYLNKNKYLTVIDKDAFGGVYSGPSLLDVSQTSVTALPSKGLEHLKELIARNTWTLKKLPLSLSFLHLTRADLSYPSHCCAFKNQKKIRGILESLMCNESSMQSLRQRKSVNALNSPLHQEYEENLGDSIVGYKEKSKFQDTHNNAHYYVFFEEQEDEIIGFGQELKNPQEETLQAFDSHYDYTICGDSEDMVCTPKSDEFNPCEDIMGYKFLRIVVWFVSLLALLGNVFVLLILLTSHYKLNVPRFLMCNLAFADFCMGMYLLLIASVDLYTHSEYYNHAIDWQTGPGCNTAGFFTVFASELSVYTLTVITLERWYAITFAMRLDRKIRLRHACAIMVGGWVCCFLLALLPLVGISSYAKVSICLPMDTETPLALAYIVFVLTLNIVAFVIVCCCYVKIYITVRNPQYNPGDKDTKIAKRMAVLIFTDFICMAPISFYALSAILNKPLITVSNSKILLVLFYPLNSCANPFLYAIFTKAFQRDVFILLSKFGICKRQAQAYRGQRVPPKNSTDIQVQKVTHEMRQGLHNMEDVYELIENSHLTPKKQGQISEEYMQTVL
Sequence of CMKLR1 (human) (Q99788 whole entry): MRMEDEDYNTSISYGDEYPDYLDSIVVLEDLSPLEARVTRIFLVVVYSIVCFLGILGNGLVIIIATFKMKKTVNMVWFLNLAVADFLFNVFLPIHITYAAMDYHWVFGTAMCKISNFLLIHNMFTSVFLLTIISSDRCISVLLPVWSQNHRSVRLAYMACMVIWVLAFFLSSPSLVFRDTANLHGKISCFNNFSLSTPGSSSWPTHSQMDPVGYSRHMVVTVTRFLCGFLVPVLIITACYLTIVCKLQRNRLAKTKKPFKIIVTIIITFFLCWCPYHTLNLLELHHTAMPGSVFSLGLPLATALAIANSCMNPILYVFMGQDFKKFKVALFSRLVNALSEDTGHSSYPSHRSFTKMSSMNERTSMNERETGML
Sequence of human cloned somatostatin receptor 5 (human) (P35346 whole entry): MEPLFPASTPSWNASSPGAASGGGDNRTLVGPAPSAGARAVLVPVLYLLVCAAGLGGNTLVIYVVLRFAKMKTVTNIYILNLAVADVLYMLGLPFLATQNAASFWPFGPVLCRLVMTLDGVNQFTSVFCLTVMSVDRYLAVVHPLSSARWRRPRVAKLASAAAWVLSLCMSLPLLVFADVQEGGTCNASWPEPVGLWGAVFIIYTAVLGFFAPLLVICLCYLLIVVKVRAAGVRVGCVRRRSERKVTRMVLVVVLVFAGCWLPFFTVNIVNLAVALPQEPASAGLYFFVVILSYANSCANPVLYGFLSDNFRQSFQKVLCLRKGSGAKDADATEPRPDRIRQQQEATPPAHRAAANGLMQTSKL
Sequence of OPRM1 (human) (P35372 whole entry): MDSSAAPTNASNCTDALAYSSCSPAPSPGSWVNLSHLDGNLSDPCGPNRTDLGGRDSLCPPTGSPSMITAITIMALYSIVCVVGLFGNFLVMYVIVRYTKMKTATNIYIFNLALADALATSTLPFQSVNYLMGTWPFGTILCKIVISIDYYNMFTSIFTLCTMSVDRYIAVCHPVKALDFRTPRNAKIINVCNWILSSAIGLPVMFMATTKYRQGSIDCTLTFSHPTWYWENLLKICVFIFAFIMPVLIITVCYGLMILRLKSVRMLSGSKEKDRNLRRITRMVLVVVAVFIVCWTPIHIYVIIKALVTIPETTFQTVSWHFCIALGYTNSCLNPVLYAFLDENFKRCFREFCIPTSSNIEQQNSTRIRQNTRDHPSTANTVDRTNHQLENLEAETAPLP
Sequence of CCR5 (human) (P51681 whole entry): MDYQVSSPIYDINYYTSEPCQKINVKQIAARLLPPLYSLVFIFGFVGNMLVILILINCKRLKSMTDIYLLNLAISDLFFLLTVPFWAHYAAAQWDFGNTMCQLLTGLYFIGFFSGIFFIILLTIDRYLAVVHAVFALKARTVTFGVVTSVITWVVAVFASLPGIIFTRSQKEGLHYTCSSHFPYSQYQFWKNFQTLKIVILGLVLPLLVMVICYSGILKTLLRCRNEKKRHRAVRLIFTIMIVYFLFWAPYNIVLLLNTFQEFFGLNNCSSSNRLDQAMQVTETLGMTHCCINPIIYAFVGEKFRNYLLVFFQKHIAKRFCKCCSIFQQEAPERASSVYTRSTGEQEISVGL
Sequence of NPY2R (human) (P49146 whole entry): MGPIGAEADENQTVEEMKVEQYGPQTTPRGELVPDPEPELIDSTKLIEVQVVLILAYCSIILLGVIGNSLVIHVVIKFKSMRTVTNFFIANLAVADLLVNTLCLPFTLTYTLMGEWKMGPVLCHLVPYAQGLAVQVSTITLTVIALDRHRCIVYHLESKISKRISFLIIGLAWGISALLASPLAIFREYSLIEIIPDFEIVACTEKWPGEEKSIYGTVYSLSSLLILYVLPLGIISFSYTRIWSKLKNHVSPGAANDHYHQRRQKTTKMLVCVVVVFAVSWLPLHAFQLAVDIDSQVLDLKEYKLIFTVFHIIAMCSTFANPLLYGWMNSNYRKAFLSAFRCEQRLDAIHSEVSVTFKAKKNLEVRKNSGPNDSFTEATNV

{DOTA}-[dF]RCF[dW]KTF[N(2-mercaptoethyl)Gly]-NH2 (disulfide 3-9; also: Ga complex of DOTA) [SEQ ID NO: 4]
-3%: CHRM4 (human) | RXFP3 (human)
3%: (CR)L-RAMP2 (human)
16%: [2]
-4%: GPR120 (human)
1%: CCR5 (human) | CXCR6 (human) | F2R (human) | GPR35 (human) | GPR92 (human) | LHCGR (human) | MCHR2 (human) | NPY2R (human) | OPRM1 (human) | PPYR1 (human) | TACR3 (human) | TBXA2R (human)
9%: DRD3 (human) | [1]
-5%: NPY1R (human)
6%: EDG4 (human)
10%: EDG6 (human)
-2%: DRD5 (human)
-1%: ADRA2B (human) | CXCR2 (human) | CXCR3 (human) | CXCR7 (human) | EBI2 (human) | GLP2R (human) | HTR2A (human) | TACR2 (human) | TSHR(L) (human)
2%: CNR2 (human) | PROKR2 (human)
0%: (CR)L-RAMP3 (human) | ADRB2 (human) | C3AR1 (human) | CCKAR (human) | CCR4 (human) | CCR6 (human) | CCR8 (human) | CCR9 (human) | CMKLR1 (human) | CRHR1 (human) | CXCR1 (human) | CXCR5 (human) | DRD1 (human) | DRD4 (human) | EDG1 (human) | GLP1R (human) | GPR109A (human) | HTR1F (human) | KISS1R (human) | MC3R (human) | OXTR (human) | P2RY6 (human) | PROKR1 (human) | PTHR2 (human) | UTR2 (human)
